# In the supplement of paper PMC10899765:
# What was measured:
# Conditions in all cases: 20 nM; 72 h
# MCF10A [1] = experiment: one-nucleolus phenotype percent effect (relative to siNT 0% and siNOL11 100%); higher = more cells with one nucleolus (ribosome biogenesis inhibition)
# Method: (§1)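 After 72 h, cells were fixed and stained with Hoechst and anti-fibrillarin, and nucleoli per nucleus were counted with CellProfiler. Values are plate-adjusted percent effect for the one-nucleolus and 5+ nucleoli phenotypes, normalised to siNT (0%) and to the positive controls siNOL11 or siKIF11 (100%), as the mean of biological triplicates. Percent viability is the nuclei count relative to siNT.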
# MCF10A [2] = experiment: percent viability (nuclei count relative to siNT); higher = more viable cells
# Method: as §1
# MCF10A [3] = experiment: 5+ nucleoli phenotype percent effect (relative to siNT 0% and siKIF11 100%); higher = more cells with five or more nucleoli
# Method: as §1
Sequence,one-nucleolus phenotype percent effect (MCF10A [1]),percent viability (MCF10A [2]),5+ nucleoli phenotype percent effect (MCF10A [3])
CUUCCGGUCUGUGAGCCCCGUC [hsa-miR-4664-3p],14.5%,36.8%,-1.01%
CUUCCUCGUCUGUCUGCCCC [hsa-miR-1238-3p],13.2%,74.5%,-4.82%
CUUCUCUUCUCUCCUUCCCAG [hsa-miR-6809-3p],17.9%,31%,-23.7%
CUUCUGAUCAAGAUUUGUGGUG [hsa-miR-4762-3p],18.9%,30.5%,-38.7%
CUUCUGCCUGCAUUCUACUCCCAG [hsa-miR-6738-3p],12.5%,51.1%,-13.9%
CUUCUUGUGCUCUAGGAUUGU [hsa-miR-578],19.6%,32.6%,-13.1%
CUUGAGUCGUGCCUUUCUGAAUG [hsa-miR-8081],14%,95.5%,-17.9%
CUUGCCAUCCUGGUCCACUGCAU [hsa-miR-4776-3p],25.4%,20.6%,-38.5%
CUUGGAUUUUCCUGGGCCUCAG [hsa-miR-5004-3p],4.88%,51.4%,-12%
CUUGGCACCUAGCAAGCACUCA [hsa-miR-1271-5p],-2.87%,91.1%,68.8%
CUUGGGAGCCCUGUUAGACUC [hsa-miR-887-5p],-32.3%,176%,76%
CUUGGGGCAUGGAGUCCCA [hsa-miR-4260],-6.43%,37.7%,9.54%
CUUGGUUCAGGGAGGGUCCCCA [hsa-miR-659-3p],37.6%,34.6%,-6.48%
CUUUCAGUCAGAUGUUUGCUGC [hsa-miR-30d-3p],-17.5%,131%,59.2%
CUUUCAGUCGGAUGUUUACAGC [hsa-miR-30e-3p],-11.8%,126%,14.5%
CUUUCAGUCGGAUGUUUGCAGC [hsa-miR-30a-3p],1.29%,86.1%,-31%
CUUUGAGCACAUGAGCAGACGGA [hsa-miR-8055],-6.93%,92.5%,-14.2%
CUUUGCUUCCUGCUCCCCUAG [hsa-miR-6885-3p],-5.84%,41.6%,-17.3%
CUUUUUGCGGUCUGGGCUUGC [hsa-miR-129-5p],8.91%,39.8%,-6.61%
GAAAACGACAAUGACUUUUGCA [hsa-miR-548ad],-29.2%,129%,40.5%
